Test results: publication PMC5679609 (PLoS ONE, 2017)

Biological target: T1, Tiam1 (human (endogenous in MCF-7), UniProt Q13009 1-1591)
T1 construct: also called Rac1-GEF; source: endogenous, MCF-7 lysate
Experiment: co-IP; anti-Tiam1 antibody, lysates of nt MCF-7 and of the lines that stably express the SDC4 constructs; Mg2+-lysis buffer (25 mM HEPES pH 7.5, 150 mM NaCl, 1% Igepal CA-630, 5 mM MgCl2, 1 mM EDTA, 2% glycerol); blot with anti-GFP-HRP or anti-Rac1
Conditions: partners not purified

T1 sequence (Q13009 whole entry): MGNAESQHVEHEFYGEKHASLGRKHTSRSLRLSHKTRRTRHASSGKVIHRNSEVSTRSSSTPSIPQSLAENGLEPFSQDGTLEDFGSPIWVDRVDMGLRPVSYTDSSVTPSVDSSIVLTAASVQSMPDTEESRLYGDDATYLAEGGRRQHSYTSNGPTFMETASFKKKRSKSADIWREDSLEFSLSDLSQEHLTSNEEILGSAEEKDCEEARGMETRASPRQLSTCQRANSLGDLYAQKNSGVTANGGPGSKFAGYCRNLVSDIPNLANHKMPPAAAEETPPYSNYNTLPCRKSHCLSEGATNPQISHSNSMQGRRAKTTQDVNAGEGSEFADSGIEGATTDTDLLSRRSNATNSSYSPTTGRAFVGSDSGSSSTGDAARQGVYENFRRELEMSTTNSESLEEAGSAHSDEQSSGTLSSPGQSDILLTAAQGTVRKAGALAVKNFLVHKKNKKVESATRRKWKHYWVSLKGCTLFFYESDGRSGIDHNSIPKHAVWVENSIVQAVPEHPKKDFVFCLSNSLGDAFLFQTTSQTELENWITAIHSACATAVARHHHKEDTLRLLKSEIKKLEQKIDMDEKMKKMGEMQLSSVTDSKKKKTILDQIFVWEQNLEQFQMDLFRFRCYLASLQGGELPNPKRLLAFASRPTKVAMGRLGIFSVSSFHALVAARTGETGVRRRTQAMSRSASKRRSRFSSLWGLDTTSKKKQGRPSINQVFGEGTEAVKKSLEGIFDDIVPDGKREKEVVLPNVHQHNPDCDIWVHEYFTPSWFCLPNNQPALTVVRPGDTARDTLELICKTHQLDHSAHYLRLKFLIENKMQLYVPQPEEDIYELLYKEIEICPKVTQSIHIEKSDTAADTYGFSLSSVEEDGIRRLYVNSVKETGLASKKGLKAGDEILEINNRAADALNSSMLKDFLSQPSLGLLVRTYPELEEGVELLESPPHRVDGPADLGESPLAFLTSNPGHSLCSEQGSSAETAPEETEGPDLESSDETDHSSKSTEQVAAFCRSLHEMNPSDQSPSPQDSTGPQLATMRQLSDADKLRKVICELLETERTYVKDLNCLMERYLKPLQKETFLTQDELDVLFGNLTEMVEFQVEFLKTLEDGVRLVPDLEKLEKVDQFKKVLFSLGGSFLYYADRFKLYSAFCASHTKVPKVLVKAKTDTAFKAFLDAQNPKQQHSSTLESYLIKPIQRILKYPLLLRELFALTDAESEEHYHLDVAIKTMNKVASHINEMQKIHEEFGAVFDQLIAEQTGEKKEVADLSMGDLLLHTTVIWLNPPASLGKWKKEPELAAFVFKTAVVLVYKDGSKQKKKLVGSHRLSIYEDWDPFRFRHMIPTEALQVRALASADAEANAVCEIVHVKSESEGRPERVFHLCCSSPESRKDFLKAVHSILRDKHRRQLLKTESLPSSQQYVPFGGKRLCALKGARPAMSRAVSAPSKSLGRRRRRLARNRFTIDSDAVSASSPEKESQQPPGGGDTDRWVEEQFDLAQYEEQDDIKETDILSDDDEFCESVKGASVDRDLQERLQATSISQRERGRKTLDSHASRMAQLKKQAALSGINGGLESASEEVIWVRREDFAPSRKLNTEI

- fold binding against the non-phosphorylated SDC4: ~10 fold
B1: Ser179Glu SDC4 (phosphomimetic), with GFP in the extracellular domain (natural protein, human, UniProt P31431 19-198, looked up)
chain: ESIRETEVIDPQDLLEGRYFSGALPDDEDVVGPGQESDDFELSGSGDLDDLEDSMIGPEVVHPLVPLDNHIPERAGSGSQVPTEPKKLEENEVIPKRISPVEESEDVSNKVSMSSTVQGSNIFERTEVLAALIVGGIVGILFAVFLILLLMYRMKKKDEGEYDLGKKPIYKKAPTNEFYA
notes: syndecan-4 (SDC4), human, GenBank CAG46871.1; GFP inserted into the extracellular domain at position 131; also called phosphomimetic SDC4; source: MCF-7, stably transfected, in lysate; not shown: GFP, internal (at position 131), kept
